Results: US20150118725A1 (GLOBAL BIOENERGIES, priority 2012, published 2015)

Key:
[1] = tested on: Streptococcus mitis MDP decarboxylase (strain B6, SEQ ID NO: 10); assay: Phosphotransferase activity on mevalonate (pyruvate kinase/lactate dehydrogenase coupled ADP assay); type: biochemical; details: 40° C., pH 7.5, 5 mM ATP, 0 to 5 mM R,S-sodium mevalonate
Excerpt: (§1) 1.5 U/ml Lactate dehydrogenase
(§2) The pH was adjusted to 7.5.

[2] = substrate: CC(O)(CCO)CC(=O)O; assay: purified protein, by the assay type; type: biochemical, Thermoplasma acidophilum; details: other: 40° C., pH 7.5, 5 mM ATP, 0 to 5 mM R,S-sodium mevalonate
Excerpt: as §1, §2

[3] = Phosphotransferase activity: ADP release in the pyruvate kinase/lactate dehydrogenase coupled assay; type: biochemical; details: 40° C., pH 7.5
Excerpt: as §1, §2

[4] = Complementation assay: Th. acidophilum MDP decarboxylase (mutant L200E) with each tested MDP decarboxylase, isoprenol by GC-FID; type: biochemical; details: 0.01 mg Th. acidophilum (L200E) enzyme + 0.5 mg tested enzyme in 0.1 ml, 200 mM mevalonate, 37° C., 24 h (FIG. 7)
Description: MDP decarboxylases were evaluated using a complementation assay. Th. acidophilum MDP decarboxylase (mutant L200E) was incubated together with each tested enzyme from the library.
The combined enzymatic assay was carried out under the following conditions:
The pH was adjusted to 7.5
0.01 mg of the Th. acidophilum enzyme and 0.5 mg of the MDP decarboxylase to be tested were added to 0.1 ml of reaction mixture. Reaction mixture containing only […] of the Th. acidophilum MDP decarboxylase (L200E) was used as reference. The assays were incubated without shaking at 37° C. for 24 h in a sealed vial (Interchim). The isoprenol production was analyzed as follows. An aliquot of 50 μl of liquid phase was removed and mixed with 100 μl of ethyl acetate. 100 μl of the upper ethyl acetate phase was transferred to a clean vial for analysis by gas chromatography. Commercial isoprenol was used as reference. The samples were analyzed on a Varian GC-430 gas chromatograph equipped with a flame ionization detector (FID). […] The retention time of isoprenol in these conditions was 7.38 min.

[5] = Combined enzymatic assay: Th. acidophilum (L200E) and S. mitis MDP decarboxylases, isoprenol by GC; type: biochemical; details: 0 to 0.4 mg S. mitis enzyme with 0.01 mg Th. acidophilum (L200E) in 0.1 ml, 37° C., 24 h (FIG. 10)
Description: 0.01 mg of purified MDP decarboxylase from Th. acidophilum (mutant L200E) and 0.2 mg of purified MDP decarboxylase from S. mitis were added to 0.1 ml of reaction mixture. Control reactions were performed in which either no enzyme was added, or no ATP was added.
To validate the combined action of two enzymes, a series of additional controls were carried out. In one assay, MDP decarboxylase from S. mitis (0.21 mg) was the only enzyme using as the catalyst. In the other experiment, 0.21 mg of the Th. acidophilum (L200E) enzyme was added, lacking S. mitis decarboxylase. The assays were incubated in a sealed vial (Interchim) without shaking for 24 hours at 37° C. Isoprenol extraction and analysis were performed according to the procedure described in Example 4.
The effect of S. mitis MDP decarboxylase concentration was assessed under the following conditions:
0.01 mg of purified MDP decarboxylase from Th. acidophilum (mutant L200E) and a varying amount (from 0 to 0.4 mg) of purified MDP decarboxylase from S. mitis were added to 0.1 ml of reaction mixture. The mixtures were then incubated without shaking at 37° C. for 24 h in a sealed vial. Isoprenol extraction and analysis were performed according to the procedure described in Example 4.

## CC(O)(CCO)CC(=O)O (stereo not drawn) [mevalonate]
[1]
  Km: 200 µM
  kcat: 0.002 s⁻¹

B1: Thermoplasma acidophilum MDP decarboxylase mutant L200E (SEQ ID NO: 16) (Thermoplasma acidophilum DSM 1728; L200E) (protein)
chain: MLHHHHHHTYRSIGSTAYPTIGVVLLGGIANPVTRTPLHTSAGIAYSDSCGSIRSETRIYADEATHIYFNGTESTDDNRSVRRVLDRYSSVFEEAFGTKTVSYSSQNFGILSGSSDAGAASIGAAILGLKPDLDPHDVENDLRAVSESAGRSLFGGLTITWSDGFHAYTEKILDPEAFSGYSIVAFAFDYQRNPSDVIHQNIVRSDEYPARKKHADEHAHMIKEYAKTNDIKGIFDLAQEDTEEYHSILRGVGVNVIRENMQKLISYLKLIRKDYWNAYIVTGGSNVYVAVESENADRLFSIENTFGSKKKMLRIVGGAWHRRPE
[2]
  Km: 500 µM
  kcat: 2.5 s⁻¹
  kcat/Km: 5000 M⁻¹ s⁻¹

B2: Streptococcus mitis: MDP decarboxylase from Streptococcus mitis (strain B6), SEQ ID NO: 10 (protein)
chain: MDREPVTVRSYANIAIIKYWGKKKEKEMVPATSSISLTLENMYTETTLSSLPTDATADAFYINGQLQNEAEHVKMSKIIDRYRPDGDGFVRIDTQNSMPTAAGLSSSSSGLSALVKACNAYFKLGLNRSQLAQEAKFASGSSSRSFYGPLGAWDKDSGEIYPVETGLKLAMIMLVLEDKKKPISSRDGMKLCVETSTTFDDWVRQSEKDYQDMLVYLKANDFAKVGELTEKNALAMHATTKTASPAFSYLTDASYEAMDFVRQLREQGEACYFTMDAGPNVKVLCQEKDLEHLSEIFGQRYRLIVSKTKDLSQDGCC
modifications: Streptococcus mitis (strain B6)
[3]
  phosphotransferase activity (ADP production in the presence of mevalonate): reproducible increase in ADP production
[4]
  isoprenol production in combined assay: highest production of isoprenol
[5]
  effect of enzyme concentration on amount of produced isoprenol: increase of the amount of produced isoprenol

B3: S. cerevisiae MDP decarboxylase: MDP decarboxylase of Saccharomyces cerevisiae, SEQ ID NO: 22 (protein, listed as Saccharomyces cerevisiae)
chain: MTVYTASVTAPVNIATLKYWGKRDTKLNLPTNSSISVTLSQDDLRTLTSAATAPEFERDTLWLNGEPHSIDNERTQNCLRDLRQLRKEMESKDASLPTLSQWKLHIVSENNFPTAAGLASSAAGFAALVSAIAKLYQLPQSTSEISRIARKGSGSACRSLFGGYVAWEMGKAEDGHDSMAVQIADSSDWPQMKACVLVVSDIKKDVSSTQGMQLTVATSELFKERIEHVVPKRFEVMRKAIVEKDFATFAKETMMDSNSFHATCLDSFPPIFYMNDTSKRIISWCHTINQFYGETIVAYTFDAGPNAVLYYLAENESKLFAFIYKLFGSVPGWDKKFTTEQLEAFNHQFESSNFTARELDLELQKDVARVILTQVGSGPQETNESLIDAKTGLPKE
[4]
  isoprenol production in combined assay: highest production of isoprenol
